Results reported in publication PMC2909130 (Biochemistry, 2010).

Target: the molecule itself
Experiment: crystal structure

B1: ArsD109/C12A/C13A/C39S (domain or fragment, Escherichia coli (plasmid R773), UniProt P46003 1-109, looked up)
chain: MKTLMVFDPAMAASTGVCGTDVDQALVDFSTDVQWLKQSGVQIERFNLAQQPMSFVQNEKVKAFIEASGAEGLPLLLLDGETVMAGRYPKRAELARWFGIPLDKVGLAP
B1: binds.

B2: ArsD109 (ArsD arsenic metallochaperone of plasmid R773, residues 1-109, wild type) (domain or fragment, Escherichia coli (plasmid R773), UniProt P46003 1-109, looked up)
chain: MKTLMVFDPAMCCSTGVCGTDVDQALVDFSTDVQWLKQCGVQIERFNLAQQPMSFVQNEKVKAFIEASGAEGLPLLLLDGETVMAGRYPKRAELARWFGIPLDKVGLAP
B2: binds.
